Experimental data as given in patent US20240190987A1, “Engineered EpCam Binding Antibodies” (TigaTX, priority 2021, published 2024).

B1: Ab1007: conventional TCE positive control (antibody)
heavy 1: EVQLVQSGPGLVQPGGSVRISCAASGYTFTNYGMNWVKQAPGKGLEWMGWINTYTGESTYADSFKGRFTFSLDTSASAAYLQINSLRAEDTAVYYCARFAIKGDYWGQGTLLTVSSASTKGPSVFPLAPSSKSTSGGTAALGCLVKDYFPEPVTVSWNSGALTSGVHTFPAVLQSSGLYSLSSVVTVPSSSLGTQTYICNVNHKPSNTKVDKKVEPKSCDKTHTCPPCPAPEAAGGPSVFLFPPKPKDTLMISRTPEVTCVVVDVSHEDPEVKFNWYVDGVEVHNAKTKPREEQYNSTYRVVSVLTVLHQDWLNGKEYKCKVSNKALGAPIEKTISKAKGQPREPMVFDLPPSREEMTKNQVSLWCMVKGFYPSDIAVEWESNGQPENNYKTTPPVLDSDGSFFLYSKLTVDKSRWQQGNVFSCSVMHEALHNHYTQKSLSLSPGKHHHHHH
heavy 2: EVQLVESGGGLVQPGGSLRLSCAASGFTFNTYAMNWVRQAPGKGLEWVARIRSKYNNYATYYADSVKGRFTISRDDSKSILYLQMNSLRAEDTAVYYCVRHGNFGNSYVSWFAYWGQGTLVTVSSGGGGSGGGGSGGGGSDIQVTQSPSSLSASVGDRVTITCRSSTGAVTTSNYANWVQQKPGKAFKGLIGGTNKLAPGVPSRFSGSLSGDDATLTISSLQPEDFATYYCALWYSNLWVFGQGTKLEIKGGGGSDKTHTCPPCPAPEAAGGPSVFLFPPKPKDTLMISRTPEVTCVVVDVSHEDPEVKFNWYVDGVEVHNAKTKPREEQYNSTYRVVSVLTVLHQDWLNGKEYKCKVSNKALGAPIEKTISKAKGQPREPQVYTLPPIRELMTSNQVSLSCAVKGFYPSDIAVEWESNGQPENNYKTTPPVLDSDGSFFLVSKLTVDKSRWQQGNVFSCSVMHEALHNHYTQKSLSLSPGK
light: DIQMTQSPSSLSASVGDRVTITCRSTKSLLHSNGITYLYWYQQKPGKAPKLLIYQMSNLASGVPSRFSSSGSGTDFTLTISSLQPEDFATYYCAQNLEIPRTFGQGTKVELKRTVAAPSVFIFPPSDEQLKSGTASVVCLLNNFYPREAKVQWKVDNALQSGNSQESVTEQDSKDSTYSLSSTLTLSKADYEKHKVYACEVTHQGLSSPVTKSFNRGEC
modifications: REGION 1..452: note = Ab1007 Knob HC; REGION 1..482: note = Ab1007 Hole HC; REGION 1..219: note = Ab1007 Knob LC
notes: conventional TCE positive control
B2: Ab0637: LS2B; HC: V29F+M100eL+M100hL on Ab0596; parent of R4b (antibody, V domains shown)
VH: EVQLVESGGGLVQPGGSLRLSCAASGFDFSSYSIHWVRQAPGKGLEWVASISPYYGSTYYADSVKGRFTISADTSKNTAYLQMNSLRAEDTAVYYCARYYEWYKYSLYLGSLGFDYWGQGTLVTVSS
VL: DIQMTQSPSSLSASVGDRVTITCRASQSVSSAVAWYQQKPGKAPKLLIYSASSLYSGVPSRFSGSRSGTDFTLTISSLQPEDFATYYCQQGGYSLITFGQGTKVEIK

How the values were obtained:
[1] = tested on: HCT-116-NR target cells; experiment: Real-time TDCC by time-lapse microscopy; type: cell-based, human; conditions: 10 nM antibodies, 250 nM indinavir, 5 μM quencher, 120 hours
Method: FIG. 42 depicts real-time measurement of TDCC in a co-culture assay for three exemplary T-LITE pairs. […] T-LITE antibodies were held constant at 10 nM with indinavir (250 nM) added to some wells, as indicated (“ON”). In some wells, a conventional TCE (Ab1007) was included as a positive control. In some wells, an anti-indinavir quencher antibody (5 μM) was added at various time points, as indicated (“OFF”). […] In some wells, no indinavir was added (“Always OFF”). Killing was interrupted by the addition of the quencher at earlier time points (“OFF at” 30 min, 24 h, 44 h, or 49 h). Killing occurred at levels similar to the no-quencher condition (“Always ON”) if the quencher was added at the latest time point (68 h). The assay was performed with human T-cells and HCT-116-NR target cells for 120 hours.
The kinetics of TDCC in a co-culture assay were measured using time-lapse microscopy (FIG. 42). […] To test how T-LITE-activated T-cells respond to the removal of indinavir, an “anti-indinavir quencher” was used. […]
Co-cultures of magnetically isolated human T-cells and target cells were prepared as described above for TDCC assays, with some modifications. […] The IncuCyte software was used to quantify Normalized target cell abundance (red object area per image, normalized to T=0 h).

[2] = UPLC-SEC retention time; type: physicochemical; conditions: Table 13
Method: LS2B antibody clones derived from the phage display campaign were profiled by analytical UPLC-SEC using a Thermo Vanquish Flex HPLC with a MabPAC 4.6×150 mm SEC column equilibrated in 1×PBS-HCl at pH 7.0. Retention time of each clone was compared to Ab0254 to assess overall developability.
UPLC-SEC was performed on a Thermo Scientific Vanquish Flex UHPLC system. Protein was diluted to 1-5 μM in HBS buffer and then 1.5-10 μL of sample was injected onto a MabPAC 4.6×150 mm in 1×PBS-HCl at pH 7.0. Data were continuously acquired at ˜280 nm and processed on the Chromeleon 7 software (Thermo Scientific). For the low pH hold assay, prior to injection on the UHPLC, samples were held at pH 3.5 for 1 hour followed by neutralization. For the complex assembly assay, the MabPAC 4.6×150 mm column was pre-equilibrated with 1×PBS-HCl at pH 7.0 and 10 μM Indinavir.

[3] = Differential scanning fluorimetry (DSF) melting temperature; type: physicochemical; conditions: Table 13
Method: DSF was performed on a LC480 Lightcycler Instrument II (Roche). Purified recombinant protein was diluted to 5 μM in DSF buffer (PBS, pH 7.4, Sypro Orange 5×) with small molecule (10 μM VTX) or vehicle (0.05% DMSO) and then heated with a temperature gradient (0.01° C./s) from 25 to 95° C. Data were continuously acquired at ˜465 nm (excitation) and ˜580 nm (emission). Data was analyzed to generate first derivative curves in which the curve maximum was reported as the melting temperature of the protein.

Molecule	real-time TDCC of HCT-116-NR target cells [1]	SEC RT [2]	TM (° C.) [3]
B1	depleted of target cells		
B2		17.205 min	78.3 °C
